Publication doi:10.1101/243402v1

Substrate: O=P(O)(O)OC[C@@H](O)[C@@H](O)[C@H](O)[C@H](O)CO
Test: purified protein
Settings: 100 mM Tris-HCl

B1: SjaM1Pase2 (Saccharina japonica) (protein)
chain: MEQATANKDISILFDFDGTIGDTETPAMEVAFWELAPYLPDTTPDKLDNLMPEFVRDNAGKAFEFMVETVDEERKAAGMDSVEEMFAAKSEPQNMLDAVDPHRKKFGLKSFAELRAPEGGEAATLLIQQKTETVDALSKIAQPCNGVREVLAALTAATVPFCISTTSPKPRVPASITACGLDEYFPPDKVHSGESDFDPPRFKPNPSVYLKAAETEGKEPVNCIAVEDSGSGVGSASNAGVGLTVGYVGASHIPEYKKDTHAEMLMAGGRAENGKGAEIVISDMKDLLKIIDFFAGAKTAGKLAPFDFPTAMVASMQQPVWVHGKKA
Q: Which Km does the source give for B1 here?
A: 20 µM
